Laboratory results: publication doi:10.1101/2022.09.05.506711

Target: Francisella tularensis class II fructose-1,6-bisphosphatase (Francisella tularensis)
Assay: crystal structure

## Francisella tularensis class II fructose-1,6-bisphosphatase (enzyme)
  stoichiometry N: 4
